Reference: article PMC3145792

Target: SECRET domain (smallpox virus-encoded chemokine receptor domain) of the vTNFR CrmD encoded by ectrom (ectromelia virus)
Test: crystal structure

chemokine domain of human CX3CL1 (residues 1-76) (from UniProt P78423 25-100) (domain or fragment)
stoichiometry N: 1
